Experimental data published in patent publication US20110130836A1, “Compositions and Methods for Use of Scar Tissue in Repair of Weight Bearing Surfaces” (LANX, INC., priority 2008, published 2011).

Biological target: T1, BMP-2 (Homo sapiens, UniProt P12643)
T1 sequence (P12643 283-396): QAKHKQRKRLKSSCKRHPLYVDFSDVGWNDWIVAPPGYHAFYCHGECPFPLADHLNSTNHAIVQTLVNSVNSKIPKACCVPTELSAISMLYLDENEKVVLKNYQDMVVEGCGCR
Test: Inhibition of BMP-2 effects by SPP-24
Conditions: 50-fold (w/w) excess of SPP-24
Text: Lyophilized SPP-24 is ground into a fine powder and combined with DBM. […] However, concentrations of growth factors in DBM vary by lot and preparation methodology. For example, Wildemann et al. reports BMP-2 concentrations of 0.004 g BMP-2 per gram total protein. Wildemann et al. (2007) Quantification of various growth factors in different demineralized bone matrix preparations. J. of Biomed. Mat. Res. Part A. 81A(2): 437-442. Thus, SPP to DBM ratios range from about 1:10 to about 2:1, for example, about 1:10, about 1:8, about 1:7, about 1:6, about 1:5, about 1:4, about 1:3, about 1:2, about 1:1, and about 2:1.

B1: secreted phosphoprotein 24 (protein, UniProt Q13103 30-211, looked up)
Secreted phosphoprotein 24: FPVYDYDPSSLRDALSASVVKVNSQSLSPYLFRAFRSSLKRVEVLDENNLVMNLEFSIRETTCRKDSGEDPATCAFQRDYYVSTAVCRSTVKVSAQQVQGVHARCSWSSSTSESYSSEEMIFGDMLGSHKWRNNYLFGLISDESISEQFYDRSLGIMRRVLPPGNRRYPNHRHRARINTDFE
notes: BMP-2 antagonist
effects of BMP-2: completely ablates
